Laboratory results published in patent US20240043528A1, “NANOBODY-OGA FUSIONS AND USES THEREOF” (President and Fellows of Harvard College, priority 2020, published 2024).
“Also recorded” adds a separate entry of the source. Values belong to the molecule of their own block, whether it stands above or below them.

Experiments:
GFP-c-Jun = assay: Cycloheximide (CHX) chase of GFP-c-Jun stability; format: cell-based, human; conditions: 50 μM CHX for up to 12 h, HEK 293T cells
Protocol: HEK 293T cells were transiently transfected with indicated plasmids and treated with DMSO, or Ac45SGlcNAc, or Thiamet-G at the same time if needed. 36-48 h after the transfection, cells were incubated with 50 μM CHX for up to 12 h. At the indicated time points, cells were harvested and lysed with M-PER lysis buffer. Protein expression and global O-GlcNAc level were determined by immunoblot assays. GAPDH protein level was used as the internal loading control.

[1] = target: T1, OGT with C-terminal His tag (human, UniProt O15294 1-1046, limits assumed); assay: co-immunoprecipitation with beads against the His tag of OGT from HEK 293T lysates, immunoblot
T1 construct: also called OGT-His; pCMV3-OGT-His; not shown: C-terminal His tag
T1 sequence (looked up): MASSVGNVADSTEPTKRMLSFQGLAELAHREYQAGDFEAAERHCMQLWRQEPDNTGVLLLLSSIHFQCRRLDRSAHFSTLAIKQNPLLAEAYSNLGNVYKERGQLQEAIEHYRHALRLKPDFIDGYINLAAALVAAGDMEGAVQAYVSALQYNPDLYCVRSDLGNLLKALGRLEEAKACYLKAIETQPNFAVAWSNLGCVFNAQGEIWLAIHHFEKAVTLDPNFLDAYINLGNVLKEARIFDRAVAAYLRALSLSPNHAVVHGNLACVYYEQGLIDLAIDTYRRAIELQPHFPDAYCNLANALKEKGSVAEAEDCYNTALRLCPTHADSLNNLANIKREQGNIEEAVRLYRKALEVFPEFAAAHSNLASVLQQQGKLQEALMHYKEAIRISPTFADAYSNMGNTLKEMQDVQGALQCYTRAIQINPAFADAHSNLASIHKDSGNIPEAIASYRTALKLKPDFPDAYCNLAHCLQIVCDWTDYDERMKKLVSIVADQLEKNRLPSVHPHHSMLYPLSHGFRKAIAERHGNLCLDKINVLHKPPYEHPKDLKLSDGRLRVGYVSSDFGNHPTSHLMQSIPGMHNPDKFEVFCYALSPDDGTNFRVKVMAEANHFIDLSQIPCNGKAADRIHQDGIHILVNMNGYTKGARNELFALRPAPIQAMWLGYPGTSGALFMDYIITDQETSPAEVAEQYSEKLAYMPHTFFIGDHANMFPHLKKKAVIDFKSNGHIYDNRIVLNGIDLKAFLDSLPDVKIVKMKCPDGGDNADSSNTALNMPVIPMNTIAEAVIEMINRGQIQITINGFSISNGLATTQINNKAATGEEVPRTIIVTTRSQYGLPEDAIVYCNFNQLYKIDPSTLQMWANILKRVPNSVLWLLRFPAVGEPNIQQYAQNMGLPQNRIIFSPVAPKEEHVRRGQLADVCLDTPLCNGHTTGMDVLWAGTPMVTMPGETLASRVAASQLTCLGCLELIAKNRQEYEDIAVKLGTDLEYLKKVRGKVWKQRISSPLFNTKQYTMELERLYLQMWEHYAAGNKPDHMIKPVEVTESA
Protocol: Overexpressed OGT and its interacting proteins were co-immunoprecipitated by beads against His tag. Whole cell lysates and co-immunoprecipitated proteins were analyzed by immunoblotting assays using the indicated antibodies. Anti-myc and anti-HA blots detect expression of full-length OGA (fl-OGA), N-terminal fragment, and C-terminal fragment, respectively. The data are representative of two biological replicates.
For immunoprecipitation of proteins with His tag, cells were lysed in a buffer containing 50 mM Tris HCl pH 8.0, 150 mM NaCl, 1% Triton X-100, 5% glycerol, 1× protease inhibitor cocktail and 10 μM Thiamet-G on ice for 20 min. Cell lysates with equal amounts of protein were diluted with wash buffer (50 mM Tris HCl pH 8.0, 150 mM NaCl, 0.01% Tween-20) and incubated with pre-washed His-Tag Dynabeads (Invitrogen, 10103D) at room temperature for 20 min with mixing, following the manufacturer's instructions. After washed 4 times with wash buffer, the enriched proteins were eluted with elution buffer (300 mM Imidazole, 50 mM Tris HCl pH 8.0, 150 mM NaCl, 0.01% Tween-20) on a shaker for 10 min at room temperature.

endogenous CREB = assay: Mass shift assay of O-GlcNAcylation on endogenous CREB (off-target marker); format: cell-based, human; conditions: untargeted off-target marker, HEK 293T cells
Protocol: (§1) For immunoblotting analysis, proteins were transferred to a nitrocellulose membrane using iBlot (Thermo Scientific). Membranes were blocked with Tris buffered saline containing 0.1% Tween-20 and 5% BSA and incubated with the primary antibodies (1:1000 dilution) and the secondary antibodies (1:10,000 dilution) sequentially. Immunoblot images were captured by Azure Imager C600. Analysis of immunoblots was conducted with Fiji ImageJ. All IR fluorescence western blot images are converted into grayscale images by Fiji ImageJ. The unsaturated exposure of immunoblot images was used for quantification with the appropriate loading controls as standards. Statistical analysis of the data was performed with Prism 8, using data from at least three independent experiments.
Purification of GalT1 (Y289L) enzyme and labeling of O-GlcNAcylated proteins with GalNAz were performed according to the procedure of Hsieh-Wilson and co-workers (Thompson, J. W., Griffin, M. E. & Hsieh-Wilson, L. C. Methods for the Detection, Study, and Dynamic Profiling of O-GlcNAc Glycosylation. Methods Enzymol. 2018, 598, 101-135). Briefly, cell samples in 6-well plates or 15-cm dishes were harvested and washed by PBS once. The lysis buffer (PBS with 2% SDS) was added into cell pellets and heated for 5 min at 95° C., followed by the sonication to sheer DNA. Protein concentrations were determined by BCA assay. […]

global O-GlcNAcylation = assay: Global O-GlcNAcylation level in whole cell lysate, anti-O-GlcNAc (RL2) immunoblot; format: cell-based, human; conditions: HEK 293T whole cell lysate; OSMI-4b 25 μM for 30 h
Protocol: After 36-48 h of transfection, cells were harvested and washed with PBS once. Cells were lysed with M-PER lysis buffer containing 1× protease inhibitor cocktail and 10 μM Thiamet-G unless otherwise noted. Protein concentrations were determined by the BCA assay kit (G-Biosciences, 786) on a multi-mode microplate reader FilterMax F3 (Molecular Devices LLC, Sunnyvale, CA).
as §1

O-GlcNAcylated proteome = assay: Quantitative TMT mass spectrometry of enriched O-GlcNAcylated proteome; format: cell-based, human; conditions: co-expression of GFP-Nup62, versus inactive nGFP-splitOGA(D174N), n=2
Protocol: Purification of GalT1 (Y289L) enzyme and labeling of O-GlcNAcylated proteins with GalNAz were performed according to the procedure of Hsieh-Wilson and co-workers (Thompson, J. W., Griffin, M. E. & Hsieh-Wilson, L. C. Methods for the Detection, Study, and Dynamic Profiling of O-GlcNAc Glycosylation. Methods Enzymol. 2018, 598, 101-135). Briefly, cell samples in 6-well plates or 15-cm dishes were harvested and washed by PBS once. The lysis buffer (PBS with 2% SDS) was added into cell pellets and heated for 5 min at 95° C., followed by the sonication to sheer DNA. Protein concentrations were determined by BCA assay. Cell lysates were reduced and alkylated with 25 mM DTT at 95° C. for 5 min and 50 mM iodoacetamide at room temperature for 1 h respectively. Proteins were precipitated by the methanol/chloroform solution (aqueous phase:CH3OH:CHCl3=4:4:1) and resuspended in 1% SDS, 20 mM HEPES (pH 7.9) buffer with a concentration of 3.75 mg/mL. For 150 μg proteins, H2O (49 μL), 2.5×GalT labeling buffer (80 μL, final concentrations: 50 mM NaCl, 20 mM HEPES, 2% NP-40, pH 7.9), 100 mM MnCl2 (11 μL), 500 μM UDP-GalNAz (10 μL), 2 mg/mL GalT1 (Y289L) (10 μL) were added into cell lysates orderly. […]
For quantitative proteomics, after reaction with Biotin-Alkyne probe, proteins were precipitated and resuspended in 400 μL PBS containing 2% SDS. […]

Molecule: CCN=C1N[C@@H]2[C@@H](O)[C@H](O)[C@@H](CO)O[C@@H]2S1 [Thiamet-G]
stability / degradation of GFP-c-Jun (GFP-c-Jun): attenuated; also recorded: enhanced

binding result [1]: no binding
B1: split OGA (N2+C3) (enzyme)
chain 1: MEQKLISEEDLAIAMVQKESQATLEERESELSSNPAASAGASLEPPAAPAPGEDNPAGAGGAAVAGAAGGARRFLCGVVEGFYGRPWVMEQRKELFRRLQKWELNTYLYAPKDDYKHRMFWREMYSVEEAEQLMTLISAAREYEIEFIYAISPGLDITFSNPKEVSTLKRKLDQVSQFGCRSFALLFDDIDHNMCAADKEVFSSFAHAQVSITNEIYQYLGEPETFLFCPTEYCGTFCYPNVSQSPYLRTVGEKLLPGIEVLWTGPKVVSKEIPVESIEEVSKIIKRAPVIWDNIHANDYDQKRLFLGPYKGRSTELIPRLKGVLTNPNCEFEANYVAIHTLATWYKSNMNGVRKDVVMTDSEDSTVSIQIKLENEGSDEDIETDVLYSPQMALKLALTEWLQEFGVPHQYSSR
chain 2: MAYPYDVPDYAAIAEKPLYTAEPVTLEDLQLLADLFYLPYEHGPKGAQMLREFQWLRANSSVVSVNCKGKDSEKIEEWRSRAAKFEEMCGLVMGMFTRLSNCANRTILYDMYSYVWDIKSIMSMVKSFVQWLGCRSHSSAQFLIGDQEPWAFRGGLAGEFQRLLPIDGANDLFFQPP
notes: Two co-expressed fragments

B2: fl-OGA: Full length OGA with a myc tag (SEQ ID NO: 1) (protein)
chain: MASMQKLISEEDLLMAMEARIRSTVQKESQATLEERESELSSNPAASAGASLEPPAAPAPGEDNPAGAGGAAVAGAAGGARRFLCGVVEGFYGRPWVMEQRKELFRRLQKWELNTYLYAPKDDYKHRMFWREMYSVEEAEQLMTLISAAREYEIEFIYAISPGLDITFSNPKEVSTLKRKLDQVSQFGCRSFALLFDDIDHNMCAADKEVFSSFAHAQVSITNEIYQYLGEPETFLFCPTEYCGTFCYPNVSQSPYLRTVGEKLLPGIEVLWTGPKVVSKEIPVESIEEVSKIIKRAPVIWDNIHANDYDQKRLFLGPYKGRSTELIPRLKGVLTNPNCEFEANYVAIHTLATWYKSNMNGVRKDVVMTDSEDSTVSIQIKLENEGSDEDIETDVLYSPQMALKLALTEWLQEFGVPHQYSSRQVAHSGAKASVVDGTPLVAAPSLNATTVVTTVYQEPIMSQGAALSGEPTTLTKEEEKKQPDEEPMDMVVEKQEETDHKNDNQILSEIVEAKMAEELKPMDTDKESIAESKSPEMSMQEDCISDIAPMQTDEQTNKEQFVPGPNEKPLYTAEPVTLEDLQLLADLFYLPYEHGPKGAQMLREFQWLRANSSVVSVNCKGKDSEKIEEWRSRAAKFEEMCGLVMGMFTRLSNCANRTILYDMYSYVWDIKSIMSMVKSFVQWLGCRSHSSAQFLIGDQEPWAFRGGLAGEFQRLLPIDGANDLFFQPPPLTPTSKVYTIRPYFPKDEASVYKICREMYDDGVGLPFQSQPDLIGDKLVGGLLSLSLDYCFVLEDEDGICGYALGTVDVTPFIKKCKISWIPFMQEKYTKPNGDKELSEAEKIMLSFHEEQEVLPETFLANFPSLIKMDIHKKVTDPSVAKSMMACLLSSLKANGSRGAFCEVRPDDKRILEFYSKLGCFEIAKMEGFPKDVVILGRSL
modifications: myc tag
O-GlcNAcylation level on endogenous CREB (endogenous CREB): reduced O-GlcNAc on CREB and the whole proteome
global O-GlcNAcylation level (global O-GlcNAcylation): global reduction of O-GlcNAc; also recorded: reduced O-GlcNAc on CREB and the whole proteome
change of enriched O-GlcNAcylated protein abundance (global proteome) (O-GlcNAcylated proteome): globally decreased O-GlcNAcylated proteins
